For this data set, the target named is HuD (UniProt P26378 1-385). In words: EMSA; 2 uM HuD, 125 nM probe; complex specificity confirmed with unlabeled competitor oligoriboprobe; 10 mM HEPES pH 7.3, 20 mM KCl, 1 mM MgCl2, 1 mM DTT, 5% glycerol, 2 ug/ml tRNA, 30 min, room temperature; 6% native PAGE, 0.5X TBE. To be noted: protein: commercial; label: 3'-biotin.
HuD, sequence (P26378 whole entry): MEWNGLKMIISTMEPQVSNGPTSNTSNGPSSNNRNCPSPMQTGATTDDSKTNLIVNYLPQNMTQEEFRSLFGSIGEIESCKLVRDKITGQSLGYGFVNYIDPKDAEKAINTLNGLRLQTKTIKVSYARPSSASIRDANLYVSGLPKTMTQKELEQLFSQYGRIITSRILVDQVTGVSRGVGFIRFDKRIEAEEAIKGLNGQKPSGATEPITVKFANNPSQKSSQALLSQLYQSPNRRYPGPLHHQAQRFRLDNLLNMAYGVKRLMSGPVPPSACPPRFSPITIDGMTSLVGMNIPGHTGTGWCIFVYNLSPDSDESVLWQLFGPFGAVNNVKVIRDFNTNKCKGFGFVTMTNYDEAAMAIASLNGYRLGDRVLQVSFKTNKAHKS

Consider UUCUGUGAUCAUUUAUUUUAAGCACUC (ssRNA) [NEP mRNA 3'-UTR ARE oligoribonucleotide], for which the binding result is given as “binds”.

For the origin of these results see PMC4029802, “PKCε Promotes HuD-Mediated Neprilysin mRNA Stability and Enhances Neprilysin-Induced Aβ Degradation in Brain Neurons”.
